Literature values in article PMC8531642.

Columns and labels:
[1] = target: Cytochrome c (UniProt P99999)
[2] = target: LRG1 (Homo sapiens) (UniProt P02750); assay: SPR
Sequence of UniProt P02750 (P02750 36-347): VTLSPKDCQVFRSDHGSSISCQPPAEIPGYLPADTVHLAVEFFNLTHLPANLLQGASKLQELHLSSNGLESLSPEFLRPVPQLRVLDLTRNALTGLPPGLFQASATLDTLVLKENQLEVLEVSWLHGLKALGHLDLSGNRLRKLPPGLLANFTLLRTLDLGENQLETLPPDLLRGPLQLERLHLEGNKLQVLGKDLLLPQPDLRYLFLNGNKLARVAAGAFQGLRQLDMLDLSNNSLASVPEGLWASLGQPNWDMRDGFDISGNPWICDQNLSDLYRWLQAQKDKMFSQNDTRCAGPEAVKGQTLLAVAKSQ

For Apaf-1 (from UniProt O14727), the Kd [1] is given as 500 nM.
In the case of Cytochrome c (from UniProt P99999), the Kd [2] is listed as 0.000158 nM.
In the case of TGF-β1 (from UniProt P01137), the Kd [2] is listed as 2320 nM.
